# Source: paper PMC8368996, “Interactions between AMOT PPxY motifs and NEDD4L WW domains function in HIV-1 release” (The Journal of Biological Chemistry, 2021)
# System: full-length NEDD4L
# Experiment: FP binding of Alexa Fluor-tagged recombinant AMOT1-300 to full-length recombinant NEDD4L
# Description: A labeled peptide (GGG-ALEXA488) was added to AMOT1-300 (which carried a sortase tag) by transpeptidation with sortase. Typical reactions contained 10 to 50 μM AMOT1-300, 30 to 150 μM GGG-ALEXA488 peptide and 20 μM sortase enzyme in the reaction buffer (50 mM Tris [pH 7.5], 150 mM NaCl and 10 mM CaCl2). Reactions were allowed to proceed at either room temperature or 4 °C until the reaction was complete (typically 1–4 h). AMOT1-300–ALEXA488 was then purified by ion-exchange chromatography (SP HiTrap) as described above.
# Each dilution series was performed at least in triplicate. […] The mean Kd values are reported as mean ± SEM.
molecule,measurement,setting,value
"AMOT1-300: Alexa Fluor 488-tagged recombinant AMOT construct (residues 1–300) spanning all three PPxY motifs, labeled by sortase transpeptidation (protein, GGG-ALEXA488 peptide added by transpeptidation with sortase; left off: His, end not stated, state not stated | sortase tag, end not stated, kept, Alexa Fluor 488-tagged recombinant AMOT construct (residues 1–300) spanning all three PPxY motifs, labeled by sortase transpeptidation) MRNSEEQPSGGTTVLQRLLQEQLRYGNPSENRSLLAIHQQATGNGPPFPSGSGNPGPQSDVLSPQDHHQQLVAHAARQEPQGQEIQSENLIMEKQLSPRMQNNEELPTYEEAKVQSQYFRGQQHASVGAAFYVTGVTNQKMRTEGRPSVQRLNPGKMHQDEGLRDLKQGHVRSLSERLMQMSLATSGVKAHPPVTSAPLSPPQPNDLYKNPTSSSEFYKAQGPLPNQHSLKGMEHRGPPPEYPFKGMPPQSVVCKPQEPGHFYSEHRLNQPGRTEGQLMRYQHPPEYGAARPAQDISLPL",fold tighter binding than the isolated AMOT PPxY1-NEDD4L WW3 complex,AMOT1-300-full-length NEDD4L vs PPxY1-WW3,1.5 fold
same,"apparent dissociation constant, AMOT1-300 with full-length NEDD4L","Fig. 3C/E, FP, Alexa Fluor 488-tagged AMOT1-300, full isotherm not sampled because of limited solubility of full-length NEDD4L",2.7 ± 0.8 µM
